Patent publication US20260001914A1, “MACROCYCLIC PEPTIDES TARGETING KRAS” (Merck Sharp & Dohme LLC, priority 2022, published 2026)
Values joined by “and” are separate entries in the source; they are usually repeats but may differ in a detail not shown here. Equal entries are not always repeated.

Target: Biotin-labeled KRAS-G12D protein (UniProt P01116-2 1-169, limits assumed, biotin label (site not stated); loaded with BODIPY-GDP)
Assay: cell-based or functional assay

| Substance | SOS assay EC50 |
| --- | --- |
| cyclo(Y-Orn-3Pal-cBuA-TyrOMe-Nle-NMe3Pal-daMeC1-C1Ac) (peptide) | 659 nM |
| cyclo(F-R-3Pal-Nle-PraMe-Nle-NMe3Pal-aMeC1-C1Ac) (peptide) | 3070 nM |
| cyclo(F-R-hS-cBuA-Phe2F-Nle-NMeF-aMeC1-C1Ac) (peptide) | 503 nM |
| cyclo(F-R-3Pal-Nle-V-Nle-NMe3Pal-aMeC1-C1Ac) (peptide) | 329 nM |
| cyclo(F-R-3Pal-Nle-TyrOMe-Nle-NMeF-cBuTE-C1Ac) (peptide) | 3440 nM |
| cyclo(F-R~3Pal-cBuA-Phe26F2-Nle-NMe3Pal-aMeC1-C1Ac) (peptide) | 4.6 nM |
| cyclo(F-NO2IMNva-d3Pal-cBuA-Phe2F-Nle-NMe3Pal-amBCP) (peptide) | 242 nM |
| cyclo(F-R-3Pal-Nle-all-Nle-NMe3Pal-aMeC1-C1Ac (peptide) | 946 nM |
| cyclo(F-MorNva-3Pal-cBuA-Phe2F-Nle-NMe3Pal-amBCP) (peptide) | 432 nM |
| cyclo(F-6Quin4NH2-Phe4Gn-L-TyrOMe-Nle-NMeF-C1-C1Ac) (peptide) | 7790 nM |
| cyclo(F-baceNva-d3Pal-cBuA-Phe2F-Nle-NMe3Pal-amBCP) (peptide) | 7.56 nM |
| cyclo(F-NMeDabN3-3Pal-Nle-Phe2F-Nle-NMe3Pal-c3amCb1c) (peptide) | 753 nM |
| cyclo(Phe4F-R-4Pal-L-TyrOMe-Nva-NMeF-Cysteamine-C1Ac) (peptide) | 3010 nM |
| cyclo(F-NMeNvalmid-3Pal-Nle-Phe2F-LysN3-NMe3Pal-c3amCblc) (peptide) | 612 nM |
| cyclo(1Nal-R~Phe4Gn-Nle-Y-Nle-NMeF-daMeC-C1Ac) (peptide) | 575 nM |
| cyclo(Phe3F-R-4Pal-L-TyrOMe-Nva-NMeF-dC1-C1Ac) (peptide) | 3750 nM |
| cyclo(F-R-3Pal-cBuA-TyrOMe-AheNMeHag-aMeC-C1Ac) peak 1 (peptide) | 1560 nM and 324 nM |
| cyclo(F-R-3Pal-cBuA~TyrOMe-Nle-NMeF-spiro54) (peptide) | 656 nM |
| cyclo(F-R-3Pal-cBuA-TyrOMe-Nle-NMeF-amBCP) (peptide) | 5.47 nM |
| cyclo(F-R-4CF33Pal-cBuA-Phe2F-Nle-NMe3Pal-aMeC1-C1Ac) (peptide) | 1.59 nM |
| cyclo(Phe4F-R-LysN3-Nle-Y-Nle-NMeF-Cysteamine-C1Ac) (peptide) | 3530 nM |
| cyclo(F-R-3Pal-Nle-TyrOMe-Nle-NMeF-cHxclacid4NH2) (peptide) | 256 nM |
| cyclo(F-R-3Pal-cBuA-Pra-Nle-NMeF-aMeC1-C1Ac) (peptide) | 298 nM |
| cyclo(F-NH2IMNva-d3Pal-cBuA-Phe2F-Nle-NMe3Pal-amBCP) (peptide) | 1.14 nM |

| Substance | SOS assay EC50 |
| --- | --- |
| cyclo(Y-hS-3Pal-cBuA-Phe2F-Nle-NMe3Pal-daMeC1-C1Ac) (peptide) | 6680 nM |
| cyclo(F-R-Phe4Gn-Nle-TyrOMe-Nle-NMeF-acBu) (peptide) | 13.8 nM |
| cyclo(F-R-Phe4cPyrr-Nle-TyrOMe-Nle-NMeF-c3amCblc) (peptide) | 35.3 nM |
| cyclo(FLac-NMeA~PyrimAla-cPrA-3Pal6F-hL-NMeF-amBCP) (peptide) | 3.72 nM |
| cyclo(F-R-3Pal-Nle-Phe2F-Nle-NMe3Pal-aMeC7-C1Ac) (peptide) | 728 nM |
| cyclo(Phe4F-R-4Pal-L-TyrOMe-Nva-NMeF-dC6-C1Ac) (peptide) | 369 nM |
| cyclo(dF-R-3Pal-Nie-TyrOMe-Nle-NMeF-c3amCblc) (peptide) | 222 nM |
| cyclo(F-NMeR-d3Pal-NMeNle-Phe2F-Nle-NMe3Pal-amBCP) (peptide) | 1200 nM |
| cyclo(NMeF-NMeNvalmid-3Pal-Nle-Phe2F-Nle-NMe3Pal-c3amCblc) (peptide) | 1220 nM |
| cyclo(F-R-3Pal-Nle-deHLeu-Nle-NMe3Pal-aMeC1-C1Ac) (peptide) | 526 nM |
| cyclo(C1Ac-F-R-3Pal-cBuA-Ape-Nle-NMe3Pal-C) (peptide) | 7270 nM |
| cyclo(Phe4F-R-4Pal-Nle-TyrOMe-Nle-NMeF-Cysteamine-C1Ac) (peptide) | 432 nM |
| cyclo(F-R-3Pal-cBuA-TyrOMe-Nle-NMeF-spiro44) (peptide) | 7340 nM |
| cyclo(C1Ac-F-R-3Pal-cBuA-Hag-Nle-NMe3Pal-C) (peptide) | 9150 nM |
| cyclo(NMeF-NMeNvalmid-3Pal-Nle-Phe2F-LysN3-NMe3Pal-c3amCb1c) (peptide) | 7760 nM |
| cyclo(F-R-3Pal-cBuA-SerOMe-Nle-NMeF-aMeC1-C1Ac) (peptide) | 943 nM |
| cyclo(F-R-3Pal-cBuA-Phe24F2-Nle-NMe3Pal-aMeC1-C1Ac) (peptide) | 1.35 nM |
| cyclo(1Nal-R-Phe4CH2NHAc-Nle-Y-Nle-NMeF-daMeC-C1Ac) (peptide) | 7030 nM |
| cyclo(F-R-3Pal-Nle-TyrOMe-Nle-NMeF-dbhcLeu) (peptide) | 949 nM |
| cyclo(F-DabN3-3Pal-Nle-Phe2F-Nle-NMe3Pal-c3amCb1c) (peptide) | 830 nM |
| cyclo(NMeF-NMeNvaImid-Phe4cPyrr-Nle-Phe2F-Nle-NMe3Pal-amBCP) (peptide) | 3220 nM |
| cyclo(F-NMeDabN3-3Pal-Nle-Phe2F-Nle-NMe3Pal-amBCP) (peptide) | 267 nM |
| cyclo(Phe4F-R-4Pal-L-TyrOMe-Nva-NMeF-dC1-C1Ac) (peptide) | 1170 nM |

The next lines start with the values.

| SOS assay EC50 | Substance |
| --- | --- |
| 238 nM | cyclo(F-R-3Pal-cBuA-TyrOMe-HagNMeHag-daMeC-C1Ac) (peptide) |
| 1140 nM | cyclo(F-R-d3Pal-cBuA-Phe2F-Nle-NMe3Pal-BCP) (peptide) |
| 5590 nM | cyclo(F-OmN3-3Pal-Nle-Phe2F-Nle-NMe3Pal-c3amCblc) (peptide) |
| 6390 nM | cyclo(F-R-3Pal-Nle-SerOMe-Nle-NMe3Pal-aMeC1-C1Ac) (peptide) |
| 3.19 nM | cyclo(F-R-d3Pal-cBuA-Phe2F-Nle-NMe3Pal-amBCP) (peptide) |
| 6820 nM | cyclo(F-R-d3Pal-cBuA-Phe2F-Nle-NMe3Pal-amOBCH) (peptide) |
| 15.6 nM | cyclo(F-R-Phe4Gnc2-Nle-TyrOMe-Nle-NMeF-c3amCblc) (peptide) |
| 2.69 nM | cyclo(FLac-NMeA-PyrimAla-cPrA-4Pal2F-hL-NMeF-amBCP) (peptide) |
| 650 nM | cyclo(F-R-3Pal-cBuA-TyrOMe-AheNMeHag-aMeC-C1Ac) peak 2 (peptide) |
| 60.6 nM | cyclo(F-R-Phe4cMph-Nle-TyrOMe-Nle-NMeF-c3amCblc) (peptide) |
| 1060 nM | cyclo(Phe4NH2-Om-3Pal-cBuA-TyrOMe-Nle-NMe3Pal-daMeC1-C1Ac) (peptide) |
| 900 nM | cyclo(F-R-3Pal-cBuA-TyrOMe-AheNMeAhe-aMeC-C1Ac) (peptide) |
| 4320 nM | cyclo(F-Nva-Phe4Gn-L-TyrOMe-Nle-NMeF-dC1-C1Ac) (peptide) |
| 370 nM | cyclo(F-R-3Pal-Nle-Phe2F-Nle-NMe3Pal-aMeC-C1Ac) (peptide) |
| 7650 nM | cyclo(NMeF-NMeNvaImid-3Pal-Nle-Phe2F-Nle-NMe3Pal-tamcPr) (peptide) |
| 186 nM | cyclo(F-R-3Pal-Nle-TyrOMe-Nle-NMeF-13amCb1c) (peptide) |
| 2 nM | cyclo(F-R-3Pal-cBuA-Phe2F-Nle-NMeF-aMeC1-C1Ac) (peptide) |
| 2820 nM | cyclo(F-R-3Pal-cBuA-TyrOMe-124triazole-dC~C1Ac) (peptide) |
| 861 nM | cyclo(F-R-3Pal-cBuA-AbuF3-Nle-NMeF-aMeC1-C1Ac) (peptide) |
| 1230 nM | cyclo(F-IPG-d3Pal-cBuA-Phe2F-Nle-NMe3Pal-amBCP) (peptide) |

| SOS assay EC50 | Substance |
| --- | --- |
| 419 nM | cyclo(F-R-Phe4Gn-Nle-TyrOMe-Nle-NMeF-cBuAc) (peptide) |
| 96.2 nM | cyclo(F-NMeR-3Pal-Nle-TyrOMe-Nle-NMeF-c3amCblc) (peptide) |
| 299 nM | cyclo(F-R-3Pal-cBuA-TyrOMe-RdHagNMeHag-aMeC-C1Ac) (peptide) |
| 37.8 nM | cyclo(F-R-d3Pal-cBuA-TyrOMe-Nle-NMeF-Smcysteamine-C1Ac) (peptide) |
| 642 nM | cyclo(F-R-3Pal-Nle-I-Nle-NMe3Pal-aMeC1-C1Ac) (peptide) |
| 2130 nM | cyclo(TyrOMe-Orn~3Pal-cBuA-Phe2F-Nle-NMe3Pal-daMeC1-C1Ac) (peptide) |
| 2770 nM | cyclo(Phe34F2-R-4Pal-L-TyrOMe-Nva-NMeF-dC1-C1Ac) (peptide) |
| 142 nM | cyclo(F-R-Phe4Gn-Nle-TyrOMe-Nle-NMeF-SamHex) (peptide) |
| 0.998 nM | cyclo(F-R-PyrimAla-cBuA-Phe2F-Nle-NMe3Pal-aMeC1-C1Ac) (peptide) |
| 935 nM | cyclo(INal-R-4Pal-L-TyrOMe-Nva-NMeF-dC1-C1Ac) (peptide) |
| 70.2 nM | cyclo(Phe4F-R-4Pal-L-TyrOMe-Nva-NMeF-dC5-C1Ac) (peptide) |
| 272 nM | cyclo(F-NMeNvalmid-3Pal-Nle-Phe2F-Nle-NMe3Pal-tamcPr) (peptide) |
| 117 nM | cyclo(F-R-3Pal-Nle-TyrOMe-Nle-NMeF-cBuAc) (peptide) |
| 8470 nM | cyclo(NMeF-NMeDabN3-3Pal-Nle-Phe2F-Nle-NMe3Pal-c3amCblc) (peptide) |
| 1.26 nM | cyclo(F-R-4F3Pal-cBuA-Phe2F-Nle-NMe3Pal-daMeC1-C1Ac) (peptide) |
| 1460 nM | cyclo(NMeF-NMeNvalmid-3Pal-dNle-Phe2F-Nle-NMe3Pal-c3amCblc) (peptide) |
| 2650 nM | cyclo(INal-R-K-Nle-Phe3AcOH-Nle-NMeF-Cysteamine-C1Ac) (peptide) |
| 387 nM | cyclo(F-R-d3Pal-cBuA-Phe2F-Nle-NMe3Pal-amBYA) (peptide) |
| 193 nM | cyclo(F-R-3Pal-Nle-TyrOMe-Nle-NMeF-bhcLeu) (peptide) |
| 2060 nM | cyclo(Phe4F-R-4Pal-hIle-TyrOMe-Nva-NMeF-dC-C1Ac) (peptide) |
